From patent publication US20130243795A1 (Janssen / Centocor, published 2013) come the findings set out here.

In general, Kd refers to a measure of binding affinity in units of concentration. The low end stands for higher affinity, the high end for lower affinity. As a reminder, the koff is the rate constant with which the complex falls apart. Higher therefore signals a short-lived complex. In general, kon refers to a measure of how fast the partners come together.

The target in assay [1] is T1, Human CD27 ECD truncated (ECD 1-121, cleavage site, His6) (human).
T1 construct: also called human CD27 ECD with His Tag; CD27-His
T1 chain: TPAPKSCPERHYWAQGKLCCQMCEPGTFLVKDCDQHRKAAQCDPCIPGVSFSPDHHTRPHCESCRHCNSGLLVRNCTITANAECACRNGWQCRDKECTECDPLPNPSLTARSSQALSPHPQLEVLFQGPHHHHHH
Kind of assay: ELISA signal for binding to CD27, initial small culture supernatants. In general terms: ELISA stands for enzyme-linked immunosorbent assay.

In assay [2] the target is T2, Human CD27 ECD, monomeric soluble (construct limits not stated) (human, UniProt P26842 20-191).
T2 construct: extracellular domain; target of the Biacore assays; also called monomeric soluble CD27; CD27-His
Kind of assay: Biacore SPR, purified mAb, CD27 ECD. (In general: Surface plasmon resonance follows binding to a sensor surface in real time, without labels.)

Assay [3] deals with T3, Human CD27, full length on the cell surface (human, UniProt P26842 21-260). Kind of assay: cell-based or functional assay.
The target in assay [4] is T4, Human CD27 ECD (ECD 1-173, His6) (human, UniProt P26842 21-193, biotinylated on amine residues (NHS-ester) where used biotinylated).
T4 construct: also called biotinylated human CD27 ECD
Kind of assay: single point Fab ELISA.

In assay [5] the target is T3, Human CD27, full length on the cell …. Kind of assay: cell-based or functional assay. This is another data set of the same source.
Assay [6] addresses T2, Human CD27 ECD, monomeric soluble …. Kind of assay: Biacore SPR, purified mAb.

T2 sequence (P26842 20-191): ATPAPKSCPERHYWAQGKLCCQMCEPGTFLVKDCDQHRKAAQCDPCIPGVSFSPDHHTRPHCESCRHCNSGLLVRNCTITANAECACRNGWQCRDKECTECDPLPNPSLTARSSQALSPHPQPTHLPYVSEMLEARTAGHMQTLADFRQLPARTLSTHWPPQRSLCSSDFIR
T3 sequence (P26842 21-260 H233R): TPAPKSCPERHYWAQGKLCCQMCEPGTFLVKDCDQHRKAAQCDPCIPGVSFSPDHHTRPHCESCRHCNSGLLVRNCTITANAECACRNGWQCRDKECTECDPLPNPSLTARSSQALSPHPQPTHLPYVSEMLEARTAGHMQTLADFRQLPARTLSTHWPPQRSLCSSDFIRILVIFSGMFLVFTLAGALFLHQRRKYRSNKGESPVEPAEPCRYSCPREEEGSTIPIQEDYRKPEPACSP

B1: M489 (antibody, IgG1, V domains shown)
VH: QVQLVESGGGLVKPGGSLRLSCAASGFTFSSYGMSWIRQAPGKGLEWVSYIDEGGGQTIYPDSVKGRFTISRDNAKNSLYLQMNSLRAEDTAVYYCARHRGNPFDYWGQGTLVTVSS
VL: DIQMTQSPSSLSASVGDRVTITCRASKSVSLDRWSFMHWYQQKPGKAPKLLIYLASNLESGVPSRFSGSGSGTDFTFTISSLQPEDIATYYCQHSRELPWTFGQGTKVEIK
notes: also called H227/L250
In assay [1], B1 came in with an ELISA signal of 0.96. For the same molecule, binding in assay [2] was put at a Kd of 24.1 pM. The “NFkB IC50” value in assay [3] turned out to be 41 pM.

B2: M488 (antibody, IgG1, V domains shown)
VH: QVQLVESGGGLVKPGGSLRLSCAASGFTFSSYGMSWIRQAPGKGLEWVSYIDEGGGQTIYPDSVKGRFTISRDNAKNSLYLQMNSLRAEDTAVYYCARHRGNPFDYWGQGTLVTVSS
VL: DIQMTQSPSSLSASVGDRVTITCRASKSVSEGRWSFMHWYQQKPGKAPKLLIYVASRLESGVPSRFSGSGSGTDFTFTISSLQPEDIATYYCQHSRELPWTFGQGTKVEIK
notes: also called H227/L249
Turning to B2, in assay [1], the ELISA signal is 0.92. The molecule further gave a Kd in assay [2] of 39.4 pM. Moreover, the “NFkB IC50” value in assay [3] stood at 23 pM.

B3: F291 (Fab, V domains shown)
VH: EVQLLESGGGLVQPGGSLRLSCAASGFTFSSYTMSWVRQAPGKGLEWVSYISSGGGNTYYPDSVKGRFTISRDNSKNTLYLQMNSLRAEDTAVYYCARHRGNPFDYWGQGTLVTVSS
VL: DIQMTQSPSSLSASVGDRVTITCRASKSVSHIRWSFMHWYQQKPGKAPKLLIYLASNLESGVPSRFSGSGSGTDFTLTISSLQPEDFATYYCQHSRELPWTFGQGTKVEIK
notes: also called H39/L172
Regarding B3, the binding result in assay [4] is reported as “binds”.

B4: M695 (antibody, V domains shown)
VH: QVQLVESGGGLVKPGGSLRLSCAASGFTFSSYSMSWIRQAPGKGLEWVSYIDAGGGFTIYPDSVKGRFTISRDNAKNSLYLQMNSLRAEDTAVYYCARHRGNPFDYWGQGTLVTVSS
VL: DIQMTQSPSSLSASVGDRVTITCRASKSVSEGRWSFMHWYQQKPGKAPKLLIYVASRLESGVPSRFSGSGSGTDFTFTISSLQPEDIATYYCQHSRELPWTFGQGTKVEIK
notes: also called single-gene DNA ID 695
In the case of B4, the “NF-kB Assay IC50” value in assay [5] was determined as 250 pM. Also, in assay [6], binding was put at a Kd of 202 pM, the koff worked out at 0.00017 s⁻¹ and the kon turned out to be 510000 M⁻¹ s⁻¹.

B5: F292 (Fab, V domains shown)
VH: EVQLLESGGGLVQPGGSLRLSCAASGFTFSSYTMSWVRQAPGKGLEWVSYISSGGGNTYYPDSVKGRFTISRDNSKNTLYLQMNSLRAEDTAVYYCARHRGNPFDYWGQGTLVTVSS
VL: DIQMTQSPSSLSASVGDRVTITCRASKSVSHVRWSFMHWYQQKPGKAPKLLIYLASNLESGVPSRFSGSGSGTDFTLTISSLQPEDFATYYCQHSRELPWTFGQGTKVEIK
notes: also called H39/L173
Regarding B5, in assay [4], the binding result is on record as “binds”.

B6: M501 (antibody, IgG1, V domains shown)
VH: QVQLVESGGGLVKPGGSLRLSCAASGFTFSSYSMSWIRQAPGKGLEWVSHIDAGGGRTWYPDSVKGRFTISRDNAKNSLYLQMNSLRAEDTAVYYCARHRGNPFDYWGQGTLVTVSS
VL: DIQMTQSPSSLSASVGDRVTITCRASKSVSLDRWSFMHWYQQKPGKAPKLLIYLASNLESGVPSRFSGSGSGTDFTFTISSLQPEDIATYYCQHSRELPWTFGQGTKVEIK
notes: also called H231/L250
Molecule B6 had an ELISA signal in assay [1] of 0.77. In assay [2], this molecule yielded a Kd of 74.2 pM. Besides, the “NFkB IC50” value in assay [3] is 4 pM.

B7: M526 (antibody, IgG1, V domains shown)
VH: QVQLVESGGGLVKPGGSLRLSCAASGFTFSSYGMSWIRQAPGKGLEWVSYIDRGGGVTIYPDSVKGRFTISRDNAKNSLYLQMNSLRAEDTAVYYCARHRGNPFDYWGQGTLVTVSS
VL: DIQMTQSPSSLSASVGDRVTITCRASKSVSEGRWSFMHWYQQKPGKAPKLLIYVASRLESGVPSRFSGSGSGTDFTFTISSLQPEDIATYYCQHSRELPWTFGQGTKVEIK
notes: also called H222/L249
Consider B7, for which the ELISA signal in assay [1] amounted to 0.69. In addition, in assay [2], binding was put at a Kd of 171 pM. Besides, in assay [3], the “NFkB IC50” value stood at 6 pM.

B8: M696 (antibody, V domains shown)
VH: QVQLVESGGGLVKPGGSLRLSCAASGFTFSSYGMSWIRQAPGKGLEWVSYIDEGGGQTIYPDSVKGRFTISRDNAKNSLYLQMNSLRAEDTAVYYCARHRGNPFDYWGQGTLVTVSS
VL: DIQMTQSPSSLSASVGDRVTITCRASKSVSHVRWSFMHWYQQKPGKAPKLLIYLASKLESGVPSRFSGSGSGTDFTFTISSLQPEDIATYYCQHSRELPWTFGQGTKVEIK
notes: also called single-gene DNA ID 696
As to B8, in assay [5], the “NF-kB Assay IC50” value is 330 pM. In assay [6], the Kd worked out at 57 pM, the koff came out at 2.1e-05 s⁻¹ and the kon was 370000 M⁻¹ s⁻¹.

B9: F297 (Fab, V domains shown)
VH: EVQLLESGGGLVQPGGSLRLSCAASGFTFSSYTMSWVRQAPGKGLEWVSTIDRGGGSTWYPDSVKGRFTISRDNSKNTLYLQMNSLRAEDTAVYYCARHRGNPFDYWGQGTLVTVSS
VL: DIQMTQSPSSLSASVGDRVTITCRASKSVSTSGYSFMHWYQQKPGKAPKLLIYLASNLESGVPSRFSGSGSGTDFTLTISSLQPEDFATYYCQHSRELPWTFGQGTKVEIK
notes: also called H190/L40
For B9, in assay [4], the binding result was “binds”.

B10: M492 (antibody, IgG1, V domains shown)
VH: QVQLVESGGGLVKPGGSLRLSCAASGFTFSSYSMSWIRQAPGKGLEWVSYIDAGGGFTIYPDSVKGRFTISRDNAKNSLYLQMNSLRAEDTAVYYCARHRGNPFDYWGQGTLVTVSS
VL: DIQMTQSPSSLSASVGDRVTITCRASKSVSEGRWSFMHWYQQKPGKAPKLLIYVASRLESGVPSRFSGSGSGTDFTFTISSLQPEDIATYYCQHSRELPWTFGQGTKVEIK
notes: also called H228/L249
Molecule B10 showed an ELISA signal in assay [1] of 0.77. In assay [2], the Kd was 142 pM. In addition, in assay [3], the “NFkB IC50” value was determined as 15 pM.

B11: M427 (antibody, IgG1, V domains shown)
VH: QVQLVESGGGLVKPGGSLRLSCAASGFTFSSYGMSWIRQAPGKGLEWVSYIDEGGGQTIYPDSVKGRFTISRDNAKNSLYLQMNSLRAEDTAVYYCARHRGNPFDYWGQGTLVTVSS
VL: DIQMTQSPSSLSASVGDRVTITCRASKSVSAWGYSFMHWYQQKPGKAPKLLIYVASRLESGVPSRFSGSGSGTDFTFTISSLQPEDIATYYCQHSRELPWTFGQGTKVEIK
notes: also called H227/L244; C27H227/C27L244
In turn, B11 returned an ELISA signal in assay [1] of 0.93. In assay [2], this molecule gave a Kd of 41.7 pM. In addition, in assay [3], the “NFkB IC50” value was determined as 19 pM.

B12: M493 (antibody, IgG1, V domains shown)
VH: QVQLVESGGGLVKPGGSLRLSCAASGFTFSSYSMSWIRQAPGKGLEWVSYIDAGGGFTIYPDSVKGRFTISRDNAKNSLYLQMNSLRAEDTAVYYCARHRGNPFDYWGQGTLVTVSS
VL: DIQMTQSPSSLSASVGDRVTITCRASKSVSLDRWSFMHWYQQKPGKAPKLLIYLASNLESGVPSRFSGSGSGTDFTFTISSLQPEDIATYYCQHSRELPWTFGQGTKVEIK
notes: also called H228/L250
With B12, in assay [1], the ELISA signal came to 0.85. The molecule also gave a Kd in assay [2] of 145 pM. For the same molecule, the “NFkB IC50” value in assay [3] was determined as 14 pM.

B13: F298 (Fab, V domains shown)
VH: EVQLLESGGGLVQPGGSLRLSCAASGFTFSSYTMSWVRQAPGKGLEWVSAIDGGGGATYYPDSVKGRFTISRDNSKNTLYLQMNSLRAEDTAVYYCARHRGNPFDYWGQGTLVTVSS
VL: DIQMTQSPSSLSASVGDRVTITCRASKSVSTSGYSFMHWYQQKPGKAPKLLIYLASNLESGVPSRFSGSGSGTDFTLTISSLQPEDFATYYCQHSRELPWTFGQGTKVEIK
notes: also called H191/L40
In the case of B13, the binding result in assay [4] is given as “binds”.

B14: F295 (Fab, V domains shown)
VH: EVQLLESGGGLVQPGGSLRLSCAASGFTFSSYTMSWVRQAPGKGLEWVSYISSGGGNTYYPDSVKGRFTISRDNSKNTLYLQMNSLRAEDTAVYYCARHRGNPFDYWGQGTLVTVSS
VL: DIQMTQSPSSLSASVGDRVTITCRASKSVSTSGYSFMHWYQQKPGKAPKLLIYVADRVEVGVPSRFSGSGSGTDFTLTISSLQPEDFATYYCQHSRELPWTFGQGTKVEIK
notes: also called H39/L176
Take B14: in assay [4], the binding result is given as “binds”.

B15: F299 (Fab, V domains shown)
VH: EVQLLESGGGLVQPGGSLRLSCAASGFTFSSYTMSWVRQAPGKGLEWVSVIDHGGGSTHYPDSVKGRFTISRDNSKNTLYLQMNSLRAEDTAVYYCARHRGNPFDYWGQGTLVTVSS
VL: DIQMTQSPSSLSASVGDRVTITCRASKSVSTSGYSFMHWYQQKPGKAPKLLIYLASNLESGVPSRFSGSGSGTDFTLTISSLQPEDFATYYCQHSRELPWTFGQGTKVEIK
notes: also called H192/L40
For the molecule B15, the binding result in assay [4] is reported as “binds”.

B16: F302 (Fab, V domains shown)
VH: EVQLLESGGGLVQPGGSLRLSCAASGFTFSSYTMSWVRQAPGKGLEWVSYISSGGGNTYYPDSVKGRFTISRDNSKNTLYLQMNSLRAEDTAVYYCARHRGNPFDYWGQGTLVTVSS
VL: DIQMTQSPSSLSASVGDRVTITCRASKSVSLIRWSFMHWYQQKPGKAPKLLIYLASNLESGVPSRFSGSGSGTDFTLTISSLQPEDFATYYCQHSRELPWTFGQGTKVEIK
notes: also called H39/L179
Take B16: the binding result in assay [4] is given as “binds”.

B17: M429 (antibody, IgG1, V domains shown)
VH: QVQLVESGGGLVKPGGSLRLSCAASGFTFSSYGMSWIRQAPGKGLEWVSYIDEGGGQTIYPDSVKGRFTISRDNAKNSLYLQMNSLRAEDTAVYYCARHRGNPFDYWGQGTLVTVSS
VL: DIQMTQSPSSLSASVGDRVTITCRASKSVSHVRWSFMHWYQQKPGKAPKLLIYLASKLESGVPSRFSGSGSGTDFTFTISSLQPEDIATYYCQHSRELPWTFGQGTKVEIK
notes: also called H227/L245
B17 gave an ELISA signal in assay [1] of 0.86. For the same molecule, the Kd in assay [2] worked out at 30.4 pM. The “NFkB IC50” value in assay [3] was determined as 42 pM.
